# Assay results reported in patent US20170334973A1.
# Assays:
# [1] = target: EBOV GPddmuc (Ebola virus (EBOV)), Q05320; test: ELISA; conditions: remark: other sources report otherwise
# [2] = target: SUDV GPddmuc (Sudan virus (SUDV)), Q66814; test: ELISA; conditions: remark: other sources report otherwise
Binder,EC50 [1],EC50 [2]
"FVM09 (antibody, V domains shown) VH: EVQLVQSGAEVKRPGESLTISCKTSGYSFTDSWVAWVRQMPGKGLEWLGSIYPGDSETKYNPSFQGHVTISADKSVTTTYLKWSSLKASDTATYYCVKGSETWGQGVLVTVSS VL: QLVLTQPASLSASPGASASLTCTFSGGINVAGYNILWYQQKAGSPPRYLLRYKSDSTKDQGSGVPSRFSGSKDASANTGILRISGLQSEDEADYYCAIGHSSGWIFGGGTRLTVL",7.07 nM,7.73 nM
"FVM20 (antibody, V domains shown) VH: EVQLVESGAEVKRPGESLTISCKTSGYSFTGSWISWVRQMPGKGLEWLGSIYPGDSETKYNPSFQGHVTISADKSVTTTYLKWSSLKASDTATYYCVKGSETWGQGVLVTVSS VL: NFMLTQSASLSASPGASASLTCTFSGGINVAGYHIFWYQQNPGSPPRYLLRYKSDSEKDQGSGVPSRFSGSKDASANTGILRISGLQSEDEADYYCAIGHSSGWIFGGGTRLTVL",0.081 nM,0.119 nM
"FVM17 (antibody, V domains shown) VH: EVQLVQSGAEVKRPGESLTISCKTSGYSFTDSWISWVRQMPGKGLEWMGSIYPGDSDARYNPSFQGHVTISADKSISTTYLKWSSLKASDTATYYCVKGSETWGQGVLVTVSS VL: QAVVTQPASLSASPGTSASLTCTFSGGINVAGYNILWYQQKPGSPPRFLLRYKSDSDNVQGSGVPSHFSGSKDASANTGILRISGLQSEDEADYYCAIGHSSGWIFGGGTRLTVL",0.096 nM,0.113 nM
"FVM04 (antibody, V domains shown) VH: EVQLVQSGGGLVQPGGSMRLSCEASGLSLSDYFMHWVRQAQGKGLEWIGLIQTKAFTYKTEYPAAVKGRFTISRDDSKNTLYLQMSSLKPEDTALYYCIAVTPDFYYWGQGVLVTVSS VL: DVVMTQSPSFLSASVGDRVTITCRASQDITINLNWFQHKPGKAPKRLIYVASRLERGVPSRFSGSGSGTEFTLTISSLQPEDFATYYCQQYNNYPLTFGPGTKLDIKRTV",0.149 nM,0.164 nM
